From the nanobody polyreactivity screen of Harvey et al. (2022)

Test: yeast display, Sf9 membrane polyspecificity reagent, FACS + sequencing; frameworks hold sequencing errors
In short: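 Nanobodies from a synthetic yeast display library (Saccharomyces cerevisiae BJ5465), induced 36–48 hours with galactose, were stained 1 hour at 4 °C with 10% biotinylated, detergent-solubilized Sf9 membrane reagent, enriched on streptavidin microbeads, then FACS-sorted. Anti-HA (expression) and streptavidin (reagent binding) fluorescence set low and high (top ~1%) gates. Polyreactivity labels come from the gate of origin. Genes were colony-PCR amplified, MiSeq 2 × 250 sequenced and filtered by CDR length.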

Row | Sequence | polyreactivity (PSR sort gate)
1 | QVQLVESGGGLVQAGGSLRLSCAASGSTIEFNAMGWYRQAPGKERELVAAISGSGASTYYADSVKGRFTISRDNAKNTVYVQMNSLKPEDTAVYYCNADSLYYDYQTVDVQALDYWGQGTQVTVSS | low polyreactivity
2 | QVQLVESGGGLVQAGGSLRLSCAASGSTSYPYAMGWYRQAPGKERELVATITSGGRTNYADSVKGRFTISRDNAKNTVYLQMNSLKPEDTAVYYCNARFYRWRSYGYDYWGQGTQVTVSS | high polyreactivity
3 | QVQLVESGGGLVQAGGSLRLSCAASGSTFLYYAMGWYRQAPGKERELVAAITWSGGRTYYADSVKGRFTISRDNAKNTVYLQMNSLKPEVTAVYYCNKAYPWLRSTALNPGLYDYWGQGTQVTVSS | high polyreactivity
4 | QVQLVESGGGLFQAGGSLRLSCAASGSTFGFYAIGWYRQAPGKERELVARITYSGGSTYYADSVKGRFTISRDNAKITVYLQLNSLIPEDNAVSYCAARSWTHYFRYDYWGQGTQVTVSS | high polyreactivity
5 | QVQLVESGGGLVQAGGSLRLSCAASGRIIYNYAMGWYRQAPGKERELVAAISRGGSTNYADSVKGRFTISRDNAKNTVYLQMNSLKPEDTAVYYCAAWTYVWTRGGSPVTVQRYNYWGQGTQVTVSS | high polyreactivity
6 | QVQLVESGRGLVQAGGSLRLSCASSGSTCVRNVMGWYRQAPGKERELVAAISRRGGGTYYADSVKGRFTISRDNAKNTVYLQMNSLKPEDTAVYYCATGSIAAGHYAYNYWGQGTQVTVSS | high polyreactivity
7 | QVQRVESGGCLVQAGGSLRLSCAASGIIFGDNVRGWYRQSPGKERQLVAAITSDGSTNYADSVKGRFTISSDNEKNNVYLQMNSLKPEDTAVYYCNVSASYYSPDPKVLVRYDYWGQGSQVTVSS | low polyreactivity
8 | QVQLVESGGGLVQAGGSLRLSCAASGSTFGTYAMGWYRQEPGKERELVAAINRDGGRTYYADSVKGRFTISRDNAKNTVYLQMNSLKPEDTAVYYCAAEGLDEGDYWGQGTQVTVSS | low polyreactivity
9 | QVQLVESGGGLVQAGGSLRLSCAASGFTFYPYAMGWYRQAPGTERELVAAIRGSGGSTHYADSVKGRFTISRDNAKNTVYLQMNSLKPEDTAVYYCAARIRGYRQYEYYYWGQGTQVTVSS | high polyreactivity
10 | QLQLVESGGGLVQAGGSLRLSCAASGIIFDFYAMGWYRQAPGKERELVAAITSSGGSTYYADSVKGRFTISRDNAKNTVYLQMNSLKPEDTAVYYCAADPWFYGYYDMDYWGQGTQVTVSS | low polyreactivity
11 | QVQLVESGGGLVQAGGSLRLSCAASGSTFYYYAMGWYRQPPGKERELVASITTGGGSTYYADSVKGRFTISRDNAKNTVYLQMNSLKPEDTAVYYCAAALAYYYWWYDYWGQGTQVTVSS | low polyreactivity
12 | QVQLVESGGGLVHAGGSLRLSCAASGSTFFLYAMGWYRQAHGKERELVAAISSDGSTYYADSVKGRFTISRDNAKHTVYLQMNSLKPEDTAVYYCAAEYTPSYYEYYYWGQGTQVTVSS | low polyreactivity
13 | QVQLGESGGGLVQAGGSLRLSCAASGFTFAYYAMGWYRQAPGKERELVAAISERGGSTYYADSVKGRFTISRDNAKNTVYLQMNILKPEDTAVYYCARTFWDYPWYQSSYYSWGQGTQVTLSS | low polyreactivity
14 | QVQLQESGGGLVQAGGSLLSCAASGTISWVDEMGWYRQAPGNERELVAGIAGGGNTNYADSVKGRYTISRDNAKNTVYLQMNSLDTAVYYCAVVGFGRGTHIYWGQGTQVTVSS | high polyreactivity
15 | QVQLVESGGGLVQAGGSLRLSCAASGSTIFENVMGWYREAPRKEREFVAAINTSGRSTYYADSVKGRFTISRDNAKNTVFLQMNSLKPEDTAVDYCARDSYWEMDYWGQGTQVTVSS | low polyreactivity
16 | QVQLQESGGRLVQSGGSLRPSCAASGSISDGVPMGWNSQAPGDERELVATTVLGATTNNADSVKGRFTISRGNAKNTVYLQMNSLKPEETAVYYCAAPLRYDKGFSYWGQGTQVTVSS | low polyreactivity
17 | QVQLVESGGGLVQAGGSLRLSCAASGSIFYYYAMGWYRQAPGKERELVAAINGGDGRTYYADSVKGRFTISRDNGKNTVYLQMNSLKPEDTAVYYCAADWPGYSAYYYWGQGTQVTVSS | low polyreactivity
18 | QVQLVESCGGLVQAGGSLRLSCAASGGTIVFYAMGWYRQAPGKERELVAAISSSGGSTYYADSVKGRFTISRDNAKNTVYLQMNSLKPEDTAVYYCNTPSYSGSSPYDHWGQGTQVTVSS | high polyreactivity
19 | QVQLVESGGGLVQAGGSLRLSCAASGSISSFYAMGWYRQAPGKERELVAGITSGGSTNYADSVKGRFTISRDNAKNTVYLQKNSLKPEDTAVYYCAAVYQGAGTHFDVFVKEFDYWGQGTQVTVSS | low polyreactivity
20 | QVQLGESGGGLVQAGGSLRLSCAGSGRTFQHYFMGWYREAPGKDRELVASITNDDSTNYADSVKGLFTISRDNAKNTVYLQMNRLKPEDTAVYYCAADWTDVVPGYDYWGQGTQVTVSS | low polyreactivity
21 | QVQLVESGGGLVQAGGSLRLSCAASGSTFVRNAMGWYRQAPGKERELVAAITSSGGSTYYADSVKGRFTISRDNAKYSVYLQMNSLKPEDTAVYYCAKRRYYRYDYWGQGTQVTVSS | low polyreactivity
